Experimental data reported in IntAct's records for PubMed 32066962.

B1: Repressor of RNA polymerase III transcription MAF1 (Saccharomyces cerevisiae), P41910 (parent)
chain: MKFIDELDIERVNQTLNFETNDCKIVGSCDIFTTKAVASDRKLYKTIDQHLDTILQENENYNATLQQQLAAPETNQSPCSSPFYSNRRDSNSFWEQKRRISFSEYNSNNNTNNSNGNSSNNNNYSGPNGSSPATFPKSAKLNDQNLKELVSNYDSGSMSSSSLDSSSKNDERIRRRSSSSISSFKSGKSSNNNYSSGTATNNVNKRRKSSINERPSNLSLGPFGPINEPSSRKIFAYLIAILNASYPDHDFSSVEPTDFVKTSLKTFISKFENTLYSLGRQPEEWVWEVINSHMTLSDCVLFQYSPSNSFLEDEPGYLWNLIGFLYNRKRKRVAYLYLICSRLNSSTGEVEDALAKKPQGKLIIDDGSNEYEGEYDFTYDENVIDDKSDQEESLQ
partner: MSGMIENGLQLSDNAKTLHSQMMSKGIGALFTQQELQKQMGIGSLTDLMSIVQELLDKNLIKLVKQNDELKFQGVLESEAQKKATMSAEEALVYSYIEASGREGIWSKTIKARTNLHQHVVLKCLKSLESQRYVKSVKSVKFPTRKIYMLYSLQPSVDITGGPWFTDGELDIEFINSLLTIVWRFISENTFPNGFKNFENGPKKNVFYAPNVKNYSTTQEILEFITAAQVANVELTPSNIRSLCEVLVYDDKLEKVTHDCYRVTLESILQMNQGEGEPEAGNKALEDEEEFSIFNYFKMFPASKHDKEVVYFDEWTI

Variants of: B1
Settings: with rpc6_yeast RPC34, P32910

| effect of a mutation on the interaction | Variant |
| --- | --- |
| with no effect | T33E;T34E |
| with no effect | L318S;W319S |
| disrupting interaction strength | D248A;D250A |
